Experimental data as given in patent publication US20160000930A1 (University of Texas, published 2016).
Bridge positions count the residues as written; N and C are the ends. Ends that are not written are not given here.

T1: recombinant bacterially-purified mouse ΔDCN (His6-tagged, amino acids 45-354 of mouse DCN) (mouse, UniProt P28654 45-354)
T1 construct: Expressed in bacteria, so not glycosylated; also called delta-DCN; His6-ΔDCN
T1 sequence: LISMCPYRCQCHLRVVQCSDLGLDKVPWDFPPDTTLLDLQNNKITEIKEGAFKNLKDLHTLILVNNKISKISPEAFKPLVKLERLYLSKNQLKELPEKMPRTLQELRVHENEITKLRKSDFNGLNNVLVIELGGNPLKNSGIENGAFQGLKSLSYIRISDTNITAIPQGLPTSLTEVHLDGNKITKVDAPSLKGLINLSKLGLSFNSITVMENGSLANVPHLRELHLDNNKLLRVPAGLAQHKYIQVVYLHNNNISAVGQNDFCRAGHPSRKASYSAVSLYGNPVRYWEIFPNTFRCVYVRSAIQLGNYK


How the values were obtained:
bovine serum albumin [1] = molecular target: T2, bovine serum albumin (bovine, UniProt P02769 25-607); assay: ELISA, BSA coated as background control (FIG. 6D)
T2 construct: Background control in ELISA; also called BSA
T2 sequence (P02769 25-607 limits assumed): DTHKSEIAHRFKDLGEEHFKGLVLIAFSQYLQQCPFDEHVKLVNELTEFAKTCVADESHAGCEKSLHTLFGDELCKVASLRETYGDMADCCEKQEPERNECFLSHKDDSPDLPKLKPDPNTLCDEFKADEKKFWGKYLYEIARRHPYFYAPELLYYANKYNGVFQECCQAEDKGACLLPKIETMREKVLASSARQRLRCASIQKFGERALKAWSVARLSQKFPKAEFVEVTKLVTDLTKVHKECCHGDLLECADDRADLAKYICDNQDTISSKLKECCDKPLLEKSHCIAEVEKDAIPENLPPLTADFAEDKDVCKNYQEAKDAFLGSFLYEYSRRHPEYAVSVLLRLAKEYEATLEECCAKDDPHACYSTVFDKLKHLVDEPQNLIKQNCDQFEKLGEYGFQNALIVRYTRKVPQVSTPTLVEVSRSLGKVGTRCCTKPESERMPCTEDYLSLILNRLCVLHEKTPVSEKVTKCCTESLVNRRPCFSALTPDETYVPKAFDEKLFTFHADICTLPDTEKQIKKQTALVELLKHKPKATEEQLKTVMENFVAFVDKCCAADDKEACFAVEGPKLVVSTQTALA
Text: (§1) Signal was detected by Odyssey imaging system using anti-goat IRDye 800CW or anti-rabbit IRDye 680 both from Licor Biosciences. Bovine DCN was from Sigma-Aldrich, NS0-derived murine DCN was from R&D Systems. Murine DCN cDNA was generated from WAT total RNA using SuperScript kit (Invitrogen). For bacterial expression, full-length mouse core DCN and ΔDCN isoforms were produced by cloning fragments encoding amino acids 1-354 and 45-354 of mouse DCN cDNA (OriGene) or of CLIC4 cDNA (OriGene) in-frame with the His₆Tag into pET28a vector, respectively. His₆-tagged proteins were purified with His-Tag kit (Novagen). For ELISA binding assays, 100 μl of 10 μg/ml of indicated His₆-DCN preparations, His₆-CLIC4 (control His₆-protein), NS0 cell-expressed mouse DCN (R&D Systems), purified bovine DCN (Sigma-Aldrich), or BSA were coated and immobilized onto Maxisorb Immunoplates (96 well; NUNC) overnight at 4° C., followed by blocking with 3% BSA, and then incubating with 100 μl of indicated concentrations of WAT7 or control WAT2 peptides. […] Bound peptides or FLAG-resistin were probed with corresponding rabbit anti-peptide Genemed antibodies (1:2,000) or rabbit anti-FLAG antibodies (Sigma-Aldrich, 1:2,000) followed by secondary goat anti-rabbit HRP-conjugated antibodies (Millipore, 1:5,000) and signal detection with Ultra-TMB (Pierce) substrate and measurement of absorbance at 450 nm. […]

[2] = molecular target: T3, glycosylated bovine DCN (purified, Sigma-Aldrich) (bovine, UniProt P21793 31-360, glycosylated (GAG chain)); assay: ELISA, protein coated, FLAG-resistin detected with anti-FLAG (FIG. 6D)
T3 construct: also called bDCN*
T3 sequence (P21793 31-360 limits assumed): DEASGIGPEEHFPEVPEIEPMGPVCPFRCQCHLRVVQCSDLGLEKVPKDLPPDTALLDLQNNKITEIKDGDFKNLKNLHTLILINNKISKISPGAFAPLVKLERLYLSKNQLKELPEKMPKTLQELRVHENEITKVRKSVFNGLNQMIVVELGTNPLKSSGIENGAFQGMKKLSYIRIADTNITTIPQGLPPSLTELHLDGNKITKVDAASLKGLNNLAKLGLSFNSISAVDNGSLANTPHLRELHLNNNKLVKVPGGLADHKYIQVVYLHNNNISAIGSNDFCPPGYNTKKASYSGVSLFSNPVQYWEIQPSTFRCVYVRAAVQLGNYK
Text: as §1

[3] = molecular target: T1, recombinant bacterially-purified mouse …; assay: ELISA, DCN forms coated, FLAG-resistin detected with anti-FLAG (FIG. 6D); reference: full-length DCN (mDCN)
Protocol: For bacterial expression, full-length mouse core DCN and ΔDCN isoforms were produced by cloning fragments encoding amino acids 1-354 and 45-354 of mouse DCN cDNA (OriGene) or of CLIC4 cDNA (OriGene) in-frame with the His₆Tag into pET28a vector, respectively. His₆-tagged proteins were purified with His-Tag kit (Novagen). For ELISA binding assays, 100 μl of 10 μg/ml of indicated His₆-DCN preparations, His₆-CLIC4 (control His₆-protein), NS0 cell-expressed mouse DCN (R&D Systems), purified bovine DCN (Sigma-Aldrich), or BSA were coated and immobilized onto Maxisorb Immunoplates (96 well; NUNC) overnight at 4° C., followed by blocking with 3% BSA, and then incubating with 100 μl of indicated concentrations of WAT7 or control WAT2 peptides. For adipokines binding assay, FLAG-tagged mouse resistin produced in HEK293 cells (Enzo Life Sciences), or control FLAG-BAP protein (Sigma-Aldrich) were incubated at the concentrations indicated. Bound peptides or FLAG-resistin were probed with corresponding rabbit anti-peptide Genemed antibodies (1:2,000) or rabbit anti-FLAG antibodies (Sigma-Aldrich, 1:2,000) followed by secondary goat anti-rabbit HRP-conjugated antibodies (Millipore, 1:5,000) and signal detection with Ultra-TMB (Pierce) substrate and measurement of absorbance at 450 nm. […]

[4] = molecular target: T3, glycosylated bovine DCN (purified, …); assay: ELISA, protein coated (FIG. 16B)
Text: as §1, with “Bovine” for “Signal was detected by Odyssey imaging system using anti-goat IRDye 800CW or anti-rabbit IRDye 680 both from Licor Biosciences. Bovine”

bovine serum albumin [5] = molecular target: T2, bovine serum albumin; assay: ELISA, BSA coated as background control
Text: as §1

Binder	binding result (bovine serum albumin [1])	binding result [2]	fold lower molar concentration for binding than to full-length DCN [3]	binding result [4]	binding result (bovine serum albumin [5])
FLAG-tagged mouse resistin produced in HEK293 cells (Enzo Life Sciences) (ligand, UniProt Q99P87 21-114, looked up, Bought protein; also called FLAG-resistin; ADSF; not shown: FLAG tag) SSMPLCPIDEAIDKKIKQDFNSLFPNAIKNIGLNCWTVSSRGKLASCPEGTAVLSCSCGSACGSWDIREEKVCHCQCARIDWTAARCCKLQVAS	no binding	no binding	100 fold	–	–
CSWKYWFGEC (disulfide 1-10, Chemically synthesized (Genemed Synthesis); also called cyclic WAT7) [WAT7 peptide, cysteine-cyclized synthetic (CSWKYWFGEC)]	–	–	–	no binding	no binding
